Experimental data reported in patent US20130209439A1, “INHIBITORS OF PDE4 BINDING TO HSP20” (THE UNIVERSITY COURT OF THE UNIVERSITY OF GLASGOW, priority 2010, published 2013).
Values belong to the binder of their own block, whether it stands above or below them.

B1: His-HSP20 (purified recombinant His-tagged HSP20) (other)
chain: MEIPVPVQPSWLRRASAPLPGLSAPGRLFDQRFGEGLLEAELAALCPTTLAPYYLRAPSVALPVAQVPTDPGHFSVLLDVKHFSPEEIAVKVVGEHVEVHARHEERPDEHGFVAREFHRRYRLPPGVDPAAVTSALSPEGVLSIQAAPASAQAPPPAAAK
notes: Expressed in E. coli BL21 from pET28c and purified on nickel; also called HSP20-His; HSP20-6His; not shown: His tag from the pET28c vector

Legend:
GST alone = biological target: T1, GST alone (UniProt P08515 1-218 = GST); assay: GST pull-down with purified recombinant proteins, immunoblot
T1 construct: Control of the pull-down
T1 sequence (P08515 whole entry): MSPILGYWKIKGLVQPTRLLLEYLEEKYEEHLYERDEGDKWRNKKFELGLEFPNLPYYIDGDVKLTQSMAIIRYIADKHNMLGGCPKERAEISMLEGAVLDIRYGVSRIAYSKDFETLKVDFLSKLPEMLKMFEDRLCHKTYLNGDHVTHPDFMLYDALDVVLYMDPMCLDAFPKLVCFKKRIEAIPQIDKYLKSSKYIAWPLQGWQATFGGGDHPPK
Description: (§1) GST-PDE4 fusions proteins (500 μl of 2 μM) were mixed with 100 μl slurry of 50% (v/v) PBS-washed Glutathione beads for 2 h at 4° C. The beads were pelleted by centrifugation (14,000 g, 1 min) and washed twice with PBS containing 1% Triton X-100 before the addition of equal molar amounts of […] fusion protein in a 1 mL solution of PBS and Triton X-100 containing 5 mM dithiothreitol. After a 2 h incubation at 4° C. the beads were collected and washed three times with PBS and eluted in 100 μl of 2× Laemmli buffer. Eluates were resolved by SDS-PAGE, and the HSP20-His fusion proteins were detected by immunoblotting.
(§2) To evaluate further Hsp20 association with PDE4, we set out to determine whether they interacted directly. In order to do this we expressed Hsp20 and various PDE4 species in E. coli and purified them for use in pull-down assays. […] Additionally, we performed the converse experiment and first did pull-downs of HSP20, using its His tag, and then tested for co-purification of PDE4 species.

[1] = biological target: B1; assay: GST pull-down with purified recombinant proteins, immunoblot (data not shown)
Description: as §1, §2

[2] = biological target: T2, HSP20, wild type, transfected into HEKB2 / HEK293 cells (human, UniProt O14558 1-160); assay: co-immunopurification with HSP20 from co-transfected HEKB2 cells, Western blot
T2 construct: Expressed from pcDNA6.2-Hsp20 (Gateway cloning into pcDNA6.2/V5-DEST); Immunopurified from cell lysates; also called HSP20 wt
T2 sequence: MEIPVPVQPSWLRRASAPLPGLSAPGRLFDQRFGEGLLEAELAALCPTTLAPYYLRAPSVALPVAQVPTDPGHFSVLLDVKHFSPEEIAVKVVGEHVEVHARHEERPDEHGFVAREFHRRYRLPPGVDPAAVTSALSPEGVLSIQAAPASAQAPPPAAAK
Description: HEK293B2 cells are a stable cell line overexpressing the GFP-tagged β₂AR were cultured as previously described⁴⁸. HEK293B2 cells were transiently transfected with wild type HSP20 or a phosphorylation defective HSP20 (S16A) or a phosphorylation mimic HSP20 (S16D). […] Cell lysis, immunopurification and western blotting was done as described before by us in some detail⁴⁸. Briefly, HEK 293 cells were transiently transfected with wild-type HSP20 by using Polyfect Transfection Reagent (Qiagen). […] Control and treated transfected HEK 293 cells were then washed thrice with ice cold PBS (phosphate buffered saline) before cellular lysates were prepared. Cellular lysates were prepared in lysis buffer containing 25 mM Hepes, pH 7.5, 2.5 mM EDTA, 50 mM NaCl, 50 mM NaF, μM sodium pyrophosphate, 10% (v/v) glycerol, 1% (v/v) Triton X-100 and Complete™ EDTA-free protease inhibitor cocktail tablets (Roche). Protein concentration of lysates were determined using the Bradford assay and all samples were equalised for protein concentration. […] Antibodies were used to detect phospho-proteins and native proteins in lysates from control and treated cells
As before, we immunopurified HSP20 and blotted for the presence of transfected isoforms (FIG. 38).

Binder: B1
- binding result (GST alone): no binding

- binding result [1]: binds
B2: GST-PDE4D5 (enzyme)
chain: MAQQTSPDTLTVPEVDNPHCPNPWLNEDLVKSLRENLLQHEKSKTARKSVSPKLSPVISPRNSPRLLRRMLLSSNIPKQRRFTVAHTCFDVDNGTSAGRSPLDPMTSPGSGLILQANFVHSQRRESFLYRSDSDYDLSPKSMSRNSSIASDIHGDDLIVTPFAQVLASLRTVRNNFAALTNLQDRAPSKRSPMCNQPSINKATITEEAYQKLASETLEELDWCLDQLETLQTRHSVSEMASNKFKRMLNRELTHLSEMSRSGNQVSEFISNTFLDKQHEVEIPSPTQKEKEKKKRPMSQISGVKKLMHSSSLTNSSIPRFGVKTEQEDVLAKELEDVNKWGLHVFRIAELSGNRPLTVIMHTIFQERDLLKTFKIPVDTLITYLMTLEDHYHADVAYHNNIHAADVVQSTHVLLSTPALEAVFTDLEILAAIFASAIHDVDHPGVSNQFLINTNSELALMYNDSSVLENHHLAVGFKLLQEENCDIFQNLTKKQRQSLRKMVIDIVLATDMSKHMNLLADLKTMVETKKVTSSGVLLLDNYSDRIQVLQNMVHCADLSNPTKPLQLYRQWTDRIMEEFFRQGDRERERGMEISPMCDKHNASVEKSQVGFIDYIVHPLWETWADLVHPDAQDILDTLEDNREWYQSTIPQSPSPAPDDPEEGRQGQTEKFQFELTLEEDGESDTEKDSGSQVEEDTSCSDSKTLCTQDSESTEIPLDEQVEEEAVGEEEESQPEACVIDDRSPDT
notes: Expressed in E. coli and purified; Printed both GST-PDE4D5 and PDE4D5-GST; also called PDE4D5-GST; not shown: glutathione-S-transferase (GST) tag

- binding result [2]: binds
B3: PDE4D5 (transfected into HEKB2 / HEK293 cells) (enzyme)
chain: MAQQTSPDTLTVPEVDNPHCPNPWLNEDLVKSLRENLLQHEKSKTARKSVSPKLSPVISPRNSPRLLRRMLLSSNIPKQRRFTVAHTCFDVDNGTSAGRSPLDPMTSPGSGLILQANFVHSQRRESFLYRSDSDYDLSPKSMSRNSSIASDIHGDDLIVTPFAQVLASLRTVRNNFAALTNLQDRAPSKRSPMCNQPSINKATITEEAYQKLASETLEELDWCLDQLETLQTRHSVSEMASNKFKRMLNRELTHLSEMSRSGNQVSEFISNTFLDKQHEVEIPSPTQKEKEKKKRPMSQISGVKKLMHSSSLTNSSIPRFGVKTEQEDVLAKELEDVNKWGLHVFRIAELSGNRPLTVIMHTIFQERDLLKTFKIPVDTLITYLMTLEDHYHADVAYHNNIHAADVVQSTHVLLSTPALEAVFTDLEILAAIFASAIHDVDHPGVSNQFLINTNSELALMYNDSSVLENHHLAVGFKLLQEENCDIFQNLTKKQRQSLRKMVIDIVLATDMSKHMNLLADLKTMVETKKVTSSGVLLLDNYSDRIQVLQNMVHCADLSNPTKPLQLYRQWTDRIMEEFFRQGDRERERGMEISPMCDKHNASVEKSQVGFIDYIVHPLWETWADLVHPDAQDILDTLEDNREWYQSTIPQSPSPAPDDPEEGRQGQTEKFQFELTLEEDGESDTEKDSGSQVEEDTSCSDSKTLCTQDSESTEIPLDEQVEEEAVGEEEESQPEACVIDDRSPDT
